Measurements taken from PMC11532494 (Nature Communications, 2024).
Values joined by “and” are separate entries in the source; they are usually repeats but may differ in a detail not shown here. Equal entries are not always repeated. No end group written: not given here. *: point of attachment. AMC = Cc1cc(=O)oc2cc(N*)ccc12

Each substance was assayed against LpApaH (3) (Legionella pneumophila, UniProt A0A2S6EWV0).
Type: biochemical

Substance	[AMC]
QPKKdec (QPKK-{AMC}; not fully specified (residue 4); printed as QPKKdec; also: decanoyl-lysine (which Lys not given here); UniProt P04637 317-320, looked up, fragment)	154.30 nM and 187.50 nM
QPKKoct (QPKK-{AMC}; not fully specified (residue 4); printed as QPKKoct; also: octanoyl-lysine (which Lys not given here); UniProt P04637 317-320, looked up, fragment)	53.71 nM and 69.34 nM
QPKKmyr (QPKK-{AMC}; not fully specified (residue 4); printed as QPKKmyr; also: myristoyl-lysine (which Lys not given here); UniProt P04637 317-320, looked up, fragment)	400.39 nM and 496.09 nM
